Consider 31 molecules from patent publication US20260209386A1 (MYTHIC THERAPEUTICS, published 2026).

Sequences and labels used below:
T1: Human PTK7 (human, UniProt Q13308 31-1070)
T1 sequence: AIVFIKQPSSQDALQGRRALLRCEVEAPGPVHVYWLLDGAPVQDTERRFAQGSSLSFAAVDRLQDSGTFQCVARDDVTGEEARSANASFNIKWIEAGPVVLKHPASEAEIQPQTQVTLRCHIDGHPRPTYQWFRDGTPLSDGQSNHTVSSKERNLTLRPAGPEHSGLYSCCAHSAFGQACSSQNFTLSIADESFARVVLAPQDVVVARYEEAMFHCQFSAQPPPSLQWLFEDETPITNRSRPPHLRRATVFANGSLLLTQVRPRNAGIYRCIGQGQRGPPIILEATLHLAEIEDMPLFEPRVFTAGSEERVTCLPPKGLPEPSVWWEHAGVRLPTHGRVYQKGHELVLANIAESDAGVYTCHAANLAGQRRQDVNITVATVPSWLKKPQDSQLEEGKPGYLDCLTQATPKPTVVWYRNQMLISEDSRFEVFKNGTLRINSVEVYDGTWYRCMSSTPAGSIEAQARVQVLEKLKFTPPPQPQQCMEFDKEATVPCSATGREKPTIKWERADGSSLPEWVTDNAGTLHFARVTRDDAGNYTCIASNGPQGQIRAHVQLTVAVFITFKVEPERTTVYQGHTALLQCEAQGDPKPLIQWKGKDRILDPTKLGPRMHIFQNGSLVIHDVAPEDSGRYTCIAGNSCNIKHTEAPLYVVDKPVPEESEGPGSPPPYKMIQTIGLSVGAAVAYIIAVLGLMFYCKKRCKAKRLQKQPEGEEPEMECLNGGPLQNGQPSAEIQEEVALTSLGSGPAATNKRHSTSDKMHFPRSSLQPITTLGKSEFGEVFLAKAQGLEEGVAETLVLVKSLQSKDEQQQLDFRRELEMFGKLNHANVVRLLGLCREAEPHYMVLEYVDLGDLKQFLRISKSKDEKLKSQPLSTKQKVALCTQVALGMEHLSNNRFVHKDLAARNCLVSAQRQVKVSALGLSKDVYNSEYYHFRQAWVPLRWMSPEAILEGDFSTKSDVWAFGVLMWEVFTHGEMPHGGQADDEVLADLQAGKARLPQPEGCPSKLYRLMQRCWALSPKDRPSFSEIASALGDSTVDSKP

B1: MYT11142 (antibody, V domains shown)
VH: EVQLVESGGGLVQPGGSLRLSCTASGFSLSTYAMSWVRQAPGKGLEWVGMIYINDNTYYASWAKGRFTISRDTSKNTVYLQMNSLRAEDTAVYYCARDIGISYYIGVSLWGQGTLVTVSS
VL: EIVMTQSPSTLSASVGDRVIITCQASQSIGTRLSWYQQKPGKAPKLLIYGASKLATGVPSRFSGSGSGAEFTLTISSLQPDDFATYYCLGEYSYTTTDGIAFGQGTKLTVL
B2: MYT11143 (antibody, V domains shown)
VH: B1 VH with D55A, Y94F
VL: B1 VL
B3: MYT11190 (antibody, V domains shown)
VH: EVQLVESGGGLVQPGGSLRLSCTASGIDLSSYVMGWVRQAPGKGLEWVGHIYGGGGTYYATWARGRFTISRDTSKNTVYLQMNSLRAEDTAVYFCARAAADFYFNLWGQGTLVTVSS
VL: EIVMTQSPSTLSASVGDRVIITCQASQSISSYLAWYQQKPGKAPKLLIYDISDLASGVPSRFSGSGSGAEFTLTISSLQPDDFATYYCQSYYWISNSGAAFGQGTKLTVL
B4: MYT11212 (antibody, V domains shown)
VH: B3 VH with H50Y, F102H
VL: B3 VL
B5: MYT11232 (antibody, V domains shown)
VH: B3 VH with H50Y
VL: B3 VL with I51H
B6: MYT11211 (antibody, V domains shown)
VH: B3 VH with H50Y, D101H
VL: B3 VL
B7: MYT11257 (antibody, V domains shown)
VH: EVQLVESGGGLVQPGGSLRLSCTASGIDHSRYSMGWVRQAPGKGLEWVGIISYGGSTYYASWAKGRFTISRDTSKNTVYLQMNSLRAEDTAVYFCARVGYPGYSGYGYAFDAFDPWGQGTLVTVSS
VL: EIVMTQSPSTLSASVGDRVIITCQSSKSVYNDNWLSWYQQKPGKAPKLLIYGASTLASGVPSRFSGSGSGAEFTLTISSLQPDDFATYYCAGGYSSSSDNGFGQGTKLTVL
B8: MYT11315 (antibody, V domains shown)
VH: B7 VH with H29L
VL: B7 VL with L35H
B9: MYT11303 (antibody, V domains shown)
VH: B7 VH with H29L, D114A
VL: B7 VL
B10: MYT11321 (antibody, V domains shown)
VH: B7 VH with H29L
VL: B7 VL with L56H
B11: MYT11261 (antibody, V domains shown)
VH: B7 VH with H29L, S33H
VL: B7 VL
B12: MYT11271 (antibody, V domains shown)
VH: B7 VH with H29L, T57H
VL: B7 VL
B13: MYT11310 (antibody, V domains shown)
VH: B7 VH with H29L
VL: B7 VL with Y30H
B14: MYT11297 (antibody, V domains shown)
VH: B7 VH with H29L, F113H
VL: B7 VL
B15: MYT11316 (antibody, V domains shown)
VH: B7 VH with H29L
VL: B7 VL with S36H
B16: MYT11294 (antibody, V domains shown)
VH: B7 VH with H29L, F110H
VL: B7 VL
B17: MYT11291 (antibody, V domains shown)
VH: B7 VH with H29L, G107H
VL: B7 VL
B18: MYT11292 (antibody, V domains shown)
VH: B7 VH with H29L, Y108H
VL: B7 VL
B19: MYT11280 (antibody, V domains shown)
VH: B7 VH with H29L, A96H
VL: B7 VL
B20: MYT11287 (antibody, V domains shown)
VH: B7 VH with H29L, Y103H
VL: B7 VL
B21: MYT11259 (antibody, V domains shown)
VH: B7 VH with H29L, R31H
VL: B7 VL
B22: MYT11293 (antibody, V domains shown)
VH: B7 VH with H29L, A109H
VL: B7 VL
B23: MYT11282 (antibody, V domains shown)
VH: B7 VH with H29L, V98H
VL: B7 VL
B24: MYT11284 (antibody, V domains shown)
VH: B7 VH with H29L, Y100H
VL: B7 VL
B25: MYT11307 (antibody, V domains shown)
VH: B7 VH with H29L
VL: B7 VL with K27H
B26: MYT11305 (antibody, V domains shown)
VH: B7 VH with H29L
VL: B7 VL with S25H
B27: MYT11264 (antibody, V domains shown)
VH: B7 VH with H29L, I50H
VL: B7 VL
B28: MYT11281 (antibody, V domains shown)
VH: B7 VH with H29L, R97H
VL: B7 VL
B29: MYT11084 (antibody, V domains shown)
VH: EVQLVESGGGLVQPGGSLRLSCTASGLSLSSYWMSWVRQAPGKGLEWVGVISAGGNTYYANWAKGRFTISRDTSKNTVYLQMNSLRAEDTAVYFCARGDDGYTNAAYVSNLWGQGTLVTVSS
VL: EIVMTQSPSTLSASVGDRVIITCQASQSISSWLSWYQQKPGKAPKLLIYKHSTLASGVPSRFSGSGSGAEFTLTISSLQPDDFATYYCQSYFDSTTIAFGQGTKLTVL
B30: MYT11100 (antibody, V domains shown)
VH: B29 VH
VL: B29 VL with H51A, T106E, V107I, L108K
B31: MYT11096 (antibody, V domains shown)
VH: B29 VH
VL: B29 VL with H51A, T95H

Positions count from the first letter of the chain named.

The assay addresses T1, Human PTK7. The experiment in a line: cell-based or functional assay.
For the molecule B1, the “Internalization, FOW @ 25 nM (fold over the wildtype, parental antibody)” value is 1.29 fold over parental antibody.
The value for B2 was 1.61 fold over parental antibody; that for B3 was 1.32 fold over parental antibody; that for B4 was 1.23 fold over parental antibody.
As to B5, the “Internalization, FOW @ 25 nM (fold over the wildtype, parental antibody)” value is 1.15 fold over parental antibody.
The value for B6 was 1.14 fold over parental antibody; that for B7 was 1.11 fold over parental antibody.
With B8 the figure was 1.51 fold over parental antibody; with B9, 1.51 fold over parental antibody.
The value for B10 was 1.36 fold over parental antibody; that for B11 was 1.24 fold over parental antibody.
As to B12, the “Internalization, FOW @ 25 nM (fold over the wildtype, parental antibody)” value was 1.57 fold over parental antibody.
The value for B13 was 1.64 fold over parental antibody; that for B14 was 1.51 fold over parental antibody.
As for B15, the “Internalization, FOW @ 25 nM (fold over the wildtype, parental antibody)” value was 1.55 fold over parental antibody.
The value for B16 was 1.66 fold over parental antibody; that for B17 was 1.53 fold over parental antibody.
With B18, the “Internalization, FOW @ 25 nM (fold over the wildtype, parental antibody)” value was 1.59 fold over parental antibody.
Consider B19, for which the “Internalization, FOW @ 25 nM (fold over the wildtype, parental antibody)” value was 1.16 fold over parental antibody.
The value for B20 was 1.71 fold over parental antibody.
With B21 the figure was 1.14 fold over parental antibody; with B22, 1.65 fold over parental antibody; with B23, 1.68 fold over parental antibody.
On to B24, for which the “Internalization, FOW @ 25 nM (fold over the wildtype, parental antibody)” value was 1.51 fold over parental antibody.
As to B25, the “Internalization, FOW @ 25 nM (fold over the wildtype, parental antibody)” value is 1.82 fold over parental antibody.
As to B26, the “Internalization, FOW @ 25 nM (fold over the wildtype, parental antibody)” value is 1.37 fold over parental antibody.
The value for B27 was 1.13 fold over parental antibody; that for B28 was 1.11 fold over parental antibody; that for B29 was 1.14 fold over parental antibody.
With B30 the figure was 1.17 fold over parental antibody; with B31, 1.43 fold over parental antibody.
